B1: PSMD8 (218-233) (peptide)
peptide: GPNNYYSFASQQQKPE
notes: Found as eluted natural peptide and tested as synthetic peptide
B2: IL-1R (79-94) (peptide)
peptide: EKLWFVPAKVEDSGHY
notes: Found as eluted natural peptide and tested as synthetic peptide; also called Interleukin-1 receptor (79-94)
B3: GILT (192-205) (peptide)
peptide: GDRGMQLMHANAQR
notes: Found as eluted natural peptide and tested as synthetic peptide; also called Interferon-gamma-inducible lysosomal thiol reductase (192-205)
B4: HPX (351-365) (peptide)
peptide: TPHGIILDSVDAAFI
notes: Synthetic peptide in the in vitro assay; also called Hemopexin (351-365)
B5: CYRB (359-375) (peptide)
peptide: ETMKMRYEHIDHTFEIQ
notes: as for B1

One assay concerns the target HLA-DRB1*0401 (Homo sapiens, UniProt P01903+P01911, A100K/A169T/F76Y/I96L/K127E/L162R/M171V/N62H/P40V/Q125Y/R42H/S133A/S149N/S66Y/V115G/V209L/W38E).
Test: not given
Particulars: reference peptides, literature (Table 1 footnote h); cited from earlier work.
Consider “M. tuberculosis Hsp65 (3-13) (KTIAYDEEARR; UniProt P9WPE7 3-13, looked up, fragment)”, for which the “HLA-DRB1*0401 binder” value is recorded as “weak HLA-DRB1*0401 binder”.

Another assay concerns the target T1, HLA-DR4 molecules (HLA-DRB1*0401), purified, detergent-solubilized (human).
T1 construct: mature; The text says HLA-DR4
Description: in vitro competition binding assay: purified HLA-DR4, biotinylated HA(307-319) reporter, synthetic competitor peptide.
Conditions: not given
GPHDVHVQIETSPPARN (Synthetic peptide in the in vitro assay) [Fig1 (293-309)]: the binding result is on record as “binds”.
As for B1, the binding result is recorded as “binds”.
Still for that read-out and setting: with B2 the entry was “binds”.
The same measure, in the same setting: the result for B3 reads “binds”.
Still for that read-out and setting: with GSREIKSQQSEVTR (Synthetic peptide in the in vitro assay) [SH3BGRL3 (13-26)] the entry was “binds”; with B4, “binds”.
NVVFVIDKSGSMSG (Synthetic peptide in the in vitro assay) [ITIH4 (274-287)]: the binding result is “binds”.
Still for that read-out and setting: with B5 the entry was “binds”.

The values above are taken from patent US20080193457A1, “Ra Antigenic Peptides” (priority 2003, published 2008).
